The record followed here is patent publication US20140349310A1 (Eli Lilly, published 2014).

B1: anti-c-Met monoclonal antibody OptD11 (mouse IgG1 subtype) (antibody, V domains shown)
VH: EVQLQQSGPELVKPGASVRISCKASGYTFTSRYIHWMKQRPGQGLEWIGWIYPVTGDTYYNEKFKGKATLTSDKSSSTAYMQISSLTSDDSAVYFCARGGGMFYYWGQGTLVTVSA
VL: ETTVTQSPALMAASPGEKVTITCSVSSSISSTNLHWYQQKSETSPKPWIYGTSNLASGVPVRFGGSGSGTSYSLTISSMEAEDAATYYCQQWSSYPYTFGGGTKLEIKR
notes: Murine IgG1; also called mAb OptD11; OptD11 c-Met antibody
B2: anti-c-Met therapeutic antibody C8-H241 (human IgG4 subtype) (antibody, V domains shown)
VH: QVQLVQSGAEVKKPGASVKVSCKASGYTFTDYYMHWVRQAPGQGLEWMGRVNPNRRGTTYNQKFEGRVTMTTDTSTSTAYMELRSLRSDDTAVYYCARANWLDYWGQGTTVTVSS
VL: DIQMTQSPSSLSASVGDRVTITCSVSSSVSSIYLHWYQQKPGKAPKLLIYSTSNLASGVPSRFSGSGSGTDFTLTISSLQPEDFATYYCQVYSGYPLTFGGGTKVEIKR
notes: also called mAb C8-H241

Assay [1] concerns the target T1, human c-Met ECD expressed as Fc fusion protein with a flag- and His-tag (Flis-tag) at the C-terminus of the Fc (human).
T1 construct: also called human c-Met-ECD-Fc-Flis; c-Met-ECD-Fc-Flis
Description: SPR (BIAcore): antibody injected over c-Met-ECD-Fc-Flis captured at 130 Ru; the sequential experiment also includes C8-H241. (SPR reads the build-up and loss of mass on a sensor chip optically.)

The target in assay [2] is T2, cynomolgus monkey c-Met ECD expressed as Fc fusion protein with a flag- and His-tag (Flis-tag) at the … (cynomolgus monkey).
T2 construct: also called cynomolgus monkey c-Met-Flis-Fc ECD
T2 sequence (chain, as listed by the source limits assumed): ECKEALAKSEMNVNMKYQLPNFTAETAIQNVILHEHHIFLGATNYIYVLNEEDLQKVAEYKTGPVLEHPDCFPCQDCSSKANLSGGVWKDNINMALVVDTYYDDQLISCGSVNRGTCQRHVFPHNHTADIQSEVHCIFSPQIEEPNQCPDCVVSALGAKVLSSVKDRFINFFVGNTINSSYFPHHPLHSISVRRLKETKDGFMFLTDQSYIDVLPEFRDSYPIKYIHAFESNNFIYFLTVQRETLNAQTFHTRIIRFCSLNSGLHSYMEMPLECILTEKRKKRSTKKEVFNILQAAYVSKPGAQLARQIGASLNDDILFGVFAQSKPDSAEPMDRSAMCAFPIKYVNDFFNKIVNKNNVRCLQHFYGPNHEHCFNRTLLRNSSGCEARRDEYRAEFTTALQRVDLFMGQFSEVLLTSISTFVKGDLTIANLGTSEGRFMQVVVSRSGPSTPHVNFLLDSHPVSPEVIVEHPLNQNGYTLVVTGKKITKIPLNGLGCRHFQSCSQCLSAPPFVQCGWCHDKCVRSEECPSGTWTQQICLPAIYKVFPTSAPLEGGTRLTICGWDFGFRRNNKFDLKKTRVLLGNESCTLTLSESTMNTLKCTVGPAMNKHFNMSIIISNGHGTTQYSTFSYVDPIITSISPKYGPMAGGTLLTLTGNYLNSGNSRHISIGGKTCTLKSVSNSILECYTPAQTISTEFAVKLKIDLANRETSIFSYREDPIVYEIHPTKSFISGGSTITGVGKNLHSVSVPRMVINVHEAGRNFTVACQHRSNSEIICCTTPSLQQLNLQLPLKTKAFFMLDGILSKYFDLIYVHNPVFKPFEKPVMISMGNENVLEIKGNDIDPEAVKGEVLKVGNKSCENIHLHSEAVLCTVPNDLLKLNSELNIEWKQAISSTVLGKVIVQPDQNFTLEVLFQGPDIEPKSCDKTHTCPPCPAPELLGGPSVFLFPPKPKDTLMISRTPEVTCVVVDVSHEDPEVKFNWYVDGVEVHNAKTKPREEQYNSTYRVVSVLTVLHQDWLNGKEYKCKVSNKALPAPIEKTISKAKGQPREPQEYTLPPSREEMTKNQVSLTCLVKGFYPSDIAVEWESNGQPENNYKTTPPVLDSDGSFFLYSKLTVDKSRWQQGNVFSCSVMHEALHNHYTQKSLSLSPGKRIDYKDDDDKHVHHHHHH
Put plainly: SPR (Biacore): antibody captured by goat anti-mouse Fc, c-Met ECD-Fc-Flis as analyte, 25 C, 1:1 Langmuir model. Here is the method: (§1) Briefly described, the anti-c-Met monoclonal antibody of the invention may be dissolved in HBS-EP buffer (150 mM sodium chloride, 3 mM EDTA, 0.005% (w/v) surfactant P-20, and 10 mM N-2-hydroxyethylpiperazine-N′-2-ethanesulfonic acid (HEPES) at pH 7.4; #BR-1001-88). Goat anti-mouse Fc antibody is immobilized on flow cells 1 to 4 of a CM5 sensor chip at a level of 4000 response units (RUs) using amine coupling chemistry to capture anti-c-Met antibodies.
(§2) Binding may be evaluated using multiple analytical cycles. Each cycle is performed at a flow rate of 50 μl/minute, and may consist of the following steps: injection of about 10 μl of an anti-c-Met monoclonal antibody at 10 μg/ml aiming at a capture of 40-100 RUs, injection of 250 μl of human or cynomolgus monkey c-Met-Flis-Fc ECD (starting at 100 nM and using two-fold serial dilutions for each cycle) followed by 20 minutes for dissociation, and regeneration using about 30 μl of 10 mM glycine hydrochloride, pH 1.5. Association and dissociation rates for each cycle may be evaluated using a “1:1 (Langmuir) binding” model in the BIAevaluation software 4.1.

The target in assay [3] is T1, human c-Met ECD expressed as Fc fusion …. The assay is described as above. On the procedure: as §1, §2
Assay [4] deals with B2. Description: ELISA control: 2 µg/mL C8-H241 (human IgG4 subtype) coated, no cMet ECD, 0.5 µg/mL biotinylated OptD11 detection. (In general: ELISA stands for enzyme-linked immunosorbent assay.)
The target in assay [5] is T1, human c-Met ECD expressed as Fc fusion …. Put plainly: SPR (BIAcore): antibody injected over c-Met-ECD-Fc-Flis captured at 130 Ru.

T1 sequence (chain, as listed by the source): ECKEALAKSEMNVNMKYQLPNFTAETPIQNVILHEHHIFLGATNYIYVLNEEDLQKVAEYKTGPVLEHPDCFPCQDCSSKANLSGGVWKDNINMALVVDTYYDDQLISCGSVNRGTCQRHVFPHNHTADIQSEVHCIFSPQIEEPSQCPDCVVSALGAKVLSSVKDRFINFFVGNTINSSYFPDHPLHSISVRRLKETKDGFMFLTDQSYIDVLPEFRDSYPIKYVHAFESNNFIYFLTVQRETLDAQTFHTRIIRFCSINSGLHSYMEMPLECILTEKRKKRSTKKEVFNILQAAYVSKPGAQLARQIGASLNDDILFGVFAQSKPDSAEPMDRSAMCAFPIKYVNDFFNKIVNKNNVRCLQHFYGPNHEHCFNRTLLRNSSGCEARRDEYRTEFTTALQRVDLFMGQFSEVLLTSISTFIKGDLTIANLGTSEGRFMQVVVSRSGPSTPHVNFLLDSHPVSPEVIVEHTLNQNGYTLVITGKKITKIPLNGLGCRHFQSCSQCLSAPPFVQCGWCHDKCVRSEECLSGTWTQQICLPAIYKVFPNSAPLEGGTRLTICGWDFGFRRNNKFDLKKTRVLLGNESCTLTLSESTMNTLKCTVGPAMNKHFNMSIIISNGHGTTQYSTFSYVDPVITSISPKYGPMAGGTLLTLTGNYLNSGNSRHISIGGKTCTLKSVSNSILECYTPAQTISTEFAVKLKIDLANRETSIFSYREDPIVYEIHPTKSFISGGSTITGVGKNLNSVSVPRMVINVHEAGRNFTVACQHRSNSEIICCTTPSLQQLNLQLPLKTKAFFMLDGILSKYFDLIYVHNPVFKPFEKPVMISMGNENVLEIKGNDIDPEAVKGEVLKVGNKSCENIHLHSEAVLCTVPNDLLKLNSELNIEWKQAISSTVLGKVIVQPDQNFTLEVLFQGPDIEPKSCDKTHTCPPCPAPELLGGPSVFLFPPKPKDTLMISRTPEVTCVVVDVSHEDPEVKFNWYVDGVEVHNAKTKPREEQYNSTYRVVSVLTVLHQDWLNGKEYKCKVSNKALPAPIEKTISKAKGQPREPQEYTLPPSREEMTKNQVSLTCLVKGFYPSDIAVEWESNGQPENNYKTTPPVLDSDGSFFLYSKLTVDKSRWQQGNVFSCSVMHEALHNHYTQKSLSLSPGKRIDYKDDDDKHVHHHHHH

Consider B1, for which the “Stoichiometry (mAb to cMet-Fc)” value in assay [1] was found to be 0.89. In assay [2], this molecule returned an equilibrium dissociation constant (Kd) of 0.35 nM, a dissociation rate constant (koff) of 4.7e-05 s⁻¹ and a kon of 130000 M⁻¹ s⁻¹. In addition, in assay [3], the Kd worked out at 0.12 nM, the off-rate (koff) is 9e-06 s⁻¹ and the on-rate constant (kon) stood at 160000 M⁻¹ s⁻¹. Further, the binding result in assay [4] is on record as “no binding (tested: 0.5 µg/mL)”.

As to B2, in assay [5], the “Stoichiometry (mAb to cMet-Fc)” value is 0.91.

Broadly, the Kd is the free concentration of one partner at which half of the binding sites on the other are occupied at equilibrium, for simple one-to-one binding. What is called koff is the rate constant with which the complex falls apart. Broadly, the kon is a measure of how fast the partners come together.
